test: yeast display, Sf9 membrane polyspecificity reagent, FACS + sequencing; frameworks hold sequencing errors
Method in brief: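 Polyreactivity labels are assigned by the sorting gate from which each nanobody was recovered. The gates were low and high (top ~1%), set on anti-HA fluorescence for expression and streptavidin fluorescence for reagent binding. Before sorting, galactose-induced (36–48 hours) yeast display cells were stained for 1 hour at 4 °C with 10% biotinylated, detergent-solubilized Sf9 membrane reagent.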

**Q.** For “QVQLVESGGGLVQAGGSLRLSCAASGRTFARNAMGWYRQAPGKERELVASIRWRGGSTYYADSVKGRFTISRDNAKNTVYLQMNRLKPEDTAVYYCATRSPYYVGRGYISYDYWGQGTQVTVSS”, which “polyreactivity (PSR sort gate)” value is on record?
**A.** high polyreactivity

**Q.** Which “polyreactivity (PSR sort gate)” value does the source give for “QVQLVESGGGLVQAGGSLRLSCAASGRTFARNPMGWYRHAPGKERELVASIRWRGGSTYYADSVKGRFTISRDNAKNTVYLQMNRLKPEDTAVYYCATRYPYYVGRGYISYDYWGQGTQVTVSS” here?
**A.** high polyreactivity

**Q.** With “QVQLVESGGGLVQAGGSLRLSCAASGRTFASNAMGWYRQAPGKERELVAAISSSGGRTYYADSVKGRFTISRDNAKNTVYLQMNSLKPEDTAVYYCAKVGPVYKYDYWGQGTQVTVSS” as the sequence, how does the “polyreactivity (PSR sort gate)” value read?
**A.** high polyreactivity

**Q.** Which “polyreactivity (PSR sort gate)” value does the source give for “QVQLVESGGGLVQAGGSLRLSCAASGRTFASYAMGWYRQAPAKDRELVAAITSGGSTKYADSVKGRFTISRDNAKNSVYFQMNSLTPEDTAVYYCWRYVFHLSNYYYWGQGTQVTVSS” here?
**A.** high polyreactivity

**Q.** With “QVQLVESGGGLVQAGGSLRLSCAASGRTFASYAMGWYRQAPGKERELVATIRSGDSTNYADSVKGRFTISRDNAKHTVYLQMNSLKPEDTAVYYCAADRDIFQQGANGAPYDYRGQGTQVTVSS” as the sequence, how does the “polyreactivity (PSR sort gate)” value read?
**A.** low polyreactivity

**Q.** With “QVQLVESGGGLVQAGGSLRLSCAASGRTFASYAMGWYRQAPVKERELVARISKSGGSTYYADSVKGRFTISRDNAKNTVYLQMNSLKPEDTAVYYCAATRYPYLYRSEVGSDYWGQGTQVNVSS” as the sequence, how does the “polyreactivity (PSR sort gate)” value read?
**A.** low polyreactivity

**Q.** Which “polyreactivity (PSR sort gate)” value does the source give for “QVQLVESGGGLVQAGGSLRLSCAASGRTFASYAMGWYRQATGKERELVAAITGSGGSTYYADSVKGRFTISRDNAKNTVYLQMNSLKPEDTAVYYCNKGPHYPVYLEYIVGYDYWGQGTQVTVSS” here?
**A.** low polyreactivity

**Q.** With “QVQLVESGGGLVQAGGSLRLSCAASGRTFATNAMGWYRQAPGKERELVAAITSRGGSTYYADSVKGRFTISRDNAKNTVYLQMNSLKPEDTAVYYCAAETSPSWYTWVTYDYWGQGTQVTVSS” as the sequence, how does the “polyreactivity (PSR sort gate)” value read?
**A.** high polyreactivity

**Q.** With “QVQLVESGGGLVQAGGSLRLSCAASGRTFATYAMGWYRPAPGKERELVAAISRSGSTTYYADSVKGRFTISRDNAKNTVYLQMNSLKPEDTAVYYCNAKFRKADYDYWGQGTQVTVSS” as the sequence, how does the “polyreactivity (PSR sort gate)” value read?
**A.** high polyreactivity

**Q.** With “QVQLVESGGGLVQAGGSLRLSCAASGRTFAVNAMGWYRQAPGKEREFVARISTRGGGTYYADSVKGRFTISRDNAKNTVYLQMNSLKPEDTAVYYCNAGRTRNYYYYPMDYWGQGTQVTVSS” as the sequence, how does the “polyreactivity (PSR sort gate)” value read?
**A.** high polyreactivity

**Q.** For “QVQLVESGGGLVQAGGSLRLSCAASGRTFAVYAMGWYRQAPGKERELVASIRLSGTRTYYADSVKGRFTISRDNAKNTVYLQMNSLKPEDTAVYYCAAKGTYSRGTFNGYRYDYWGQGTQVTVSS”, which “polyreactivity (PSR sort gate)” value is on record?
**A.** high polyreactivity

**Q.** Which “polyreactivity (PSR sort gate)” value does the source give for “QVQLVESGGGLVQAGGSLRLSCAASGRTFAVYAMGWYRQAPGKERELVATINGGGNTNYADSVKGRFTISRDNAKNTVYLQMNSLKPVDTAVYYCAADAWDHWTWFYPTNGMDYWGQGTQVTVSS” here?
**A.** low polyreactivity

**Q.** Which “polyreactivity (PSR sort gate)” value does the source give for “QVQLVESGGGLVQAGGSLRLSCAASGRTFAWNAMGWYRQAPGKERELVAAISSRGTSTYYADSVKGRFTISRDNAKNTVYLQMNSLKPEDTAVYYCAKYTNPASGEYGYWGQGTQVTVSS” here?
**A.** high polyreactivity

**Q.** For “QVQLVESGGGLVQAGGSLRLSCAASGRTFAWYAMGWYRQAPGKERELVAAISSGGSTYYADSVKGRFTISRDNAKKTVYLQMNSLKPDDTAVYYCAAEWHYIYAYDYWRQGTQVTVSS”, which “polyreactivity (PSR sort gate)” value is on record?
**A.** low polyreactivity

**Q.** With “QVQLVESGGGLVQAGGSLRLSCAASGRTFAWYAMGWYRQAPGKERELVATITSRGGSTYYADSVKGRFTISRDNAKNTVYLQMNSLKPEDTAVYYCAAQSFWRPHQYDYWGQGTQVTVSS” as the sequence, how does the “polyreactivity (PSR sort gate)” value read?
**A.** low polyreactivity

**Q.** Which “polyreactivity (PSR sort gate)” value does the source give for “QVQLVESGGGLVQAGGSLRLSCAASGRTFAYNTMGWYRQAPGKESELVAAITWSGGGTYYADSVKGRFTISRDNAKNTVYLQMNSLKPEDTAVYYCAVEYASPRARYRYYYWGQGTQVTVSS” here?
**A.** high polyreactivity

**Q.** For “QVQLVESGGGLVQAGGSLRLSCAASGRTFAYYAMGWYIPGPGKERELVAAISSGGSTYYADCVKGRFTISRDNAKNTVYLQMNSLIPEDTAVYYCATRDKQYYYWGQGTQVTVSS”, which “polyreactivity (PSR sort gate)” value is on record?
**A.** high polyreactivity

**Q.** With “QVQLVESGGGLVQAGGSLRLSCAASGRTFAYYAMGWYRQAPGKERELVAAIDLSDGTTFYADSVKGRFTISRDNAKNTVYLQMNSLKPEDTSVYYCAAELFNVSYGSDFDYWGQGTQVTVSS” as the sequence, how does the “polyreactivity (PSR sort gate)” value read?
**A.** low polyreactivity

**Q.** For “QVQLVESGGGLVQAGGSLRLSCAASGRTFAYYAMGWYRQAPGKERELVAAISSGGGSTYYADSVKGRFTISRDNAKNTVYLQMNSLKPEDTAVYYCNKGFEYWGQGTQVTVSS”, which “polyreactivity (PSR sort gate)” value is on record?
**A.** high polyreactivity

**Q.** Which “polyreactivity (PSR sort gate)” value does the source give for “QVQLVESGGGLVQAGGSLRLSCAASGRTFAYYAMGWYRQAPGKVRELVAAISSGGRTNYADSVKGRFTISRDNAKNTVYLQMNSLKPEDTAVYYCARKAAYQIYNGQYGGFGYGYWGQGTQVTVSS” here?
**A.** high polyreactivity

**Q.** Which “polyreactivity (PSR sort gate)” value does the source give for “QVQLVESGGGLVQAGGSLRLSCAASGRTFCRYAMGWYRQAPGKERELVAAIRSGASTYYADSVKGRFTISPDNGKNTVYLQMKSLIPEDTAVYYCAADIARHLTGFAYYRLDYWGQGTQVTVSS” here?
**A.** low polyreactivity

**Q.** With “QVQLVESGGGLVQAGGSLRLSCAASGRTFCYYAMVWYRRAPGKERELVAAISWSGSRTYYADSVKGRFTISRDNANNSVYLQMTSLKPEDTAVYYCAAGARGLFWEYDYWGQGTQVTVSS” as the sequence, how does the “polyreactivity (PSR sort gate)” value read?
**A.** high polyreactivity

**Q.** For “QVQLVESGGGLVQAGGSLRLSCAASGRTFDAYAMGWYRQAPGKERELVAAISSGGSTNYADSVKGRFTISRDHAKNTVYLQMNSLKPEDTAVYYCAAEYIQYLFYSVRVAYDYWGQGTQVTVSS”, which “polyreactivity (PSR sort gate)” value is on record?
**A.** low polyreactivity

**Q.** Which “polyreactivity (PSR sort gate)” value does the source give for “QVQLVESGGGLVQAGGSLRLSCAASGRTFDDYAMGWSRQAPGTERELVAAITSGGSTYYADSVKGRFTISRDNAKNTVYLQMNSLKPEDTAVYYCNARSPRPYAYRPYDYWGQGTQVTVSS” here?
**A.** low polyreactivity

**Q.** For “QVQLVESGGGLVQAGGSLRLSCAASGRTFDGYDMGWYRQAPGQERELVAAINVVGGSTYYADSVKGRFTISRDNAKNTVYLQMNSLKPEDTAVYYCAADDYIYTVYSYTYEYWGQGTQVTVSS”, which “polyreactivity (PSR sort gate)” value is on record?
**A.** low polyreactivity

**Q.** With “QVQLVESGGGLVQAGGSLRLSCAASGRTFDIYAMGWYRQAPGKERELVADITWSDGTTYYADSVKRRFTISRDNAKNTVYLQMTSLTPEDTAVYYCNAYTVYAYDYWGQGTQVTVSS” as the sequence, how does the “polyreactivity (PSR sort gate)” value read?
**A.** low polyreactivity

**Q.** Which “polyreactivity (PSR sort gate)” value does the source give for “QVQLVESGGGLVQAGGSLRLSCAASGRTFDLYAMGWYRQAHGKERELVAAIRWSSGNTYYADSVKGRFTISRDNAKNTVYLQMNSLKPEDTAVYYCNDELVPFRFEYWGQGTQVTVSS” here?
**A.** low polyreactivity

**Q.** For “QVQLVESGGGLVQAGGSLRLSCAASGRTFDLYAMGWYRQAPGKERELVAAISGRGGRTYYADSVKGRFTISRDNAKNTVYLQMNSLKPEDTAVYYCAARTGATSRIRFDYWGQGTQVTVSS”, which “polyreactivity (PSR sort gate)” value is on record?
**A.** low polyreactivity

**Q.** Which “polyreactivity (PSR sort gate)” value does the source give for “QVQLVESGGGLVQAGGSLRLSCAASGRTFDLYAMGWYRQAPGKERELVAAITKGGGSTYYADSVKGRFTISRDNAKNTVYLQMNSLKPEDTAVYYCAARFYYPWLYLFDSWGQGTQVTVSS” here?
**A.** high polyreactivity

**Q.** Which “polyreactivity (PSR sort gate)” value does the source give for “QVQLVESGGGLVQAGGSLRLSCAASGRTFDNNAMGWYRQAPGKERELVAAINWSGVRTYYADSVKGRFTISRDNAKNTVYLQMNSLKPEDTAVYYCNTVSASYYYRYNSWGQGTQVTVSS” here?
**A.** high polyreactivity

**Q.** Which “polyreactivity (PSR sort gate)” value does the source give for “QVQLVESGGGLVQAGGSLRLSCAASGRTFDRNAMGWYRQAPGKERELVAAITSRGGRTYYADSVKGRFTISRDNAKNTVYLQMKSLKPEDTAVYYCAADLFSSRVRSNFDYWGQGTQVTVSS” here?
**A.** high polyreactivity

**Q.** For “QVQLVESGGGLVQAGGSLRLSCAASGRTFDRYAMGWYRQAPGKERELVAAISRGGITYYADSVKERFTISRDNAKNTVYLQMNSLKPEDTAVYYCNAVRWADGDYWGQGTQVTVSS”, which “polyreactivity (PSR sort gate)” value is on record?
**A.** high polyreactivity

**Q.** Which “polyreactivity (PSR sort gate)” value does the source give for “QVQLVESGGGLVQAGGSLRLSCAASGRTFDRYAMGWYRQAPGKERELVAAISSGTSTNYADSVKGRFTISRDNAKNTVSLQMNSLKPEDTAVYYCNVDSPLQPYRYYYWGQGTQVTVSS” here?
**A.** low polyreactivity

**Q.** For “QVQLVESGGGLVQAGGSLRLSCAASGRTFDRYAMGWYRQAPGKERELVAVIRFIGGSTYYADSVKGRFTISRDNAKNTVYLQMISLKPEDTAVYFCAADATIDWVDYDYWGQGTQVTVSS”, which “polyreactivity (PSR sort gate)” value is on record?
**A.** low polyreactivity

**Q.** With “QVQLVESGGGLVQAGGSLRLSCAASGRTFDSYAMGWYRQAPGKERELVAAIYADSVKGRFTISRDNAKNTVYLQMNSLKPEDTAVYYCAARDPSRHARRAYDYWGQGTQVTVSS” as the sequence, how does the “polyreactivity (PSR sort gate)” value read?
**A.** low polyreactivity

**Q.** For “QVQLVESGGGLVQAGGSLRLSCAASGRTFDSYTMGWYRQAPGKERELLADITFTGGSTYYADSVKGRFTISRDNAKNTVYLQMNSLKPEDTAVYYCAAESVAILGLVYPKGYGYWGQGTQVTVSS”, which “polyreactivity (PSR sort gate)” value is on record?
**A.** low polyreactivity

**Q.** For “QVQLVESGGGLVQAGGSLRLSCAASGRTFDVYAMGGYRQAPGKERELVATIYYRSARTYYADSVKGRFTISRDNAKNTVYLQMNSLTPEDTAVYYCAAYFETWHGFGYWGQGTQVTVSS”, which “polyreactivity (PSR sort gate)” value is on record?
**A.** high polyreactivity

**Q.** Which “polyreactivity (PSR sort gate)” value does the source give for “QVQLVESGGGLVQAGGSLRLSCAASGRTFDVYAMGWYRQAPGKERELVAAISSSGGSTYYADSVKGRFTISRDNAKNTVYLQMNSLKPEDTAVYYCAVYYYSVYQYQAMDYWGQGTQVTVSS” here?
**A.** low polyreactivity

**Q.** With “QVQLVESGGGLVQAGGSLRLSCAASGRTFDYYAMGWYRPAPGKERELVARISWNGGSTRYADSVKGRFTISRDNAKNTVYLQMNSLKPEDTAVYYCKKVPYYAGQHYDYWGRGTQVTVSS” as the sequence, how does the “polyreactivity (PSR sort gate)” value read?
**A.** high polyreactivity

**Q.** For “QVQLVESGGGLVQAGGSLRLSCAASGRTFDYYSMGWYRQAPGKERELVAAIRGSGGSTYYADSVKGRFTISRDNAKNTVSLQMNSLKPEDTAVYYCATDPPYFRTPWEYDYWGQGTQVTVSS”, which “polyreactivity (PSR sort gate)” value is on record?
**A.** low polyreactivity

**Q.** Which “polyreactivity (PSR sort gate)” value does the source give for “QVQLVESGGGLVQAGGSLRLSCAASGRTFEGNAMGWYRQAPGKERELVAAISGSGGRTYYADSVKGRFTISRDHAKNTVYLPMNSLKPEHTAVYYATLYSVYNPWRFNYWGQGTQVTVSS” here?
**A.** high polyreactivity

Source: the nanobody polyreactivity screen of Harvey et al. (2022)
